From patent publication US20120172295A1 (INDIANA UNIVERSITY RESEARCH AND TECHNOLOGY, published 2012) come the findings set out here.

B1: Peptide 26 (SEQ ID NO: 637) (peptide)
peptide: H[Aib]QGTFTSDYSKYLD[Aib]RRAQDFVQWLMNT-NH2
modifications: N-terminus assumed
SMILES: CSCC[C@H](NC(=O)[C@H](CC(C)C)NC(=O)[C@H](Cc1c[nH]c2ccccc12)NC(=O)[C@H](CCC(N)=O)NC(=O)[C@@H](NC(=O)[C@H](Cc1ccccc1)NC(=O)[C@H](CC(=O)O)NC(=O)[C@H](CCC(N)=O)NC(=O)[C@H](C)NC(=O)[C@H](CCCNC(=N)N)NC(=O)[C@H](CCCNC(=N)N)NC(=O)C(C)(C)NC(=O)[C@H](CC(=O)O)NC(=O)[C@H](CC(C)C)NC(=O)[C@H](Cc1ccc(O)cc1)NC(=O)[C@H](CCCCN)NC(=O)[C@H](CO)NC(=O)[C@H](Cc1ccc(O)cc1)NC(=O)[C@H](CC(=O)O)NC(=O)[C@H](CO)NC(=O)[C@@H](NC(=O)[C@H](Cc1ccccc1)NC(=O)[C@@H](NC(=O)CNC(=O)[C@H](CCC(N)=O)NC(=O)C(C)(C)NC(=O)[C@@H](N)Cc1c[nH]cn1)[C@@H](C)O)[C@@H](C)O)C(C)C)C(=O)N[C@@H](CC(N)=O)C(=O)N[C@H](C(N)=O)[C@@H](C)O
B2: Chi-2, AIB2, Lys10 γE-C16 (SEQ ID NO: 645) (peptide)
peptide: H[Aib]QGTFTSDK([γGlu-Palmitoyl])SKYLDEQAAKEFIAWLMNT-NH2
modifications: N-terminus assumed
SMILES: CCCCCCCCCCCCCCCC(=O)N[C@@H](CCC(=O)NCCCC[C@H](NC(=O)[C@H](CC(=O)O)NC(=O)[C@H](CO)NC(=O)[C@@H](NC(=O)[C@H](Cc1ccccc1)NC(=O)[C@@H](NC(=O)CNC(=O)[C@H](CCC(N)=O)NC(=O)C(C)(C)NC(=O)[C@@H](N)Cc1c[nH]cn1)[C@@H](C)O)[C@@H](C)O)C(=O)N[C@@H](CO)C(=O)N[C@@H](CCCCN)C(=O)N[C@@H](Cc1ccc(O)cc1)C(=O)N[C@@H](CC(C)C)C(=O)N[C@@H](CC(=O)O)C(=O)N[C@@H](CCC(=O)O)C(=O)N[C@@H](CCC(N)=O)C(=O)N[C@@H](C)C(=O)N[C@@H](C)C(=O)N[C@@H](CCCCN)C(=O)N[C@@H](CCC(=O)O)C(=O)N[C@@H](Cc1ccccc1)C(=O)N[C@H](C(=O)N[C@@H](C)C(=O)N[C@@H](Cc1c[nH]c2ccccc12)C(=O)N[C@@H](CC(C)C)C(=O)N[C@@H](CCSC)C(=O)N[C@@H](CC(N)=O)C(=O)N[C@H](C(N)=O)[C@@H](C)O)[C@@H](C)CC)C(=O)O
B3: Chi-2, AIB2, Lys10 γE-γE-C16 (SEQ ID NO: 646) (peptide)
peptide: H[Aib]QGTFTSDK([γGlu-γGlu-Palmitoyl])SKYLDEQAAKEFIAWLMNT-NH2
modifications: N-terminus assumed
SMILES: CCCCCCCCCCCCCCCC(=O)N[C@@H](CCC(=O)N[C@@H](CCC(=O)NCCCC[C@H](NC(=O)[C@H](CC(=O)O)NC(=O)[C@H](CO)NC(=O)[C@@H](NC(=O)[C@H](Cc1ccccc1)NC(=O)[C@@H](NC(=O)CNC(=O)[C@H](CCC(N)=O)NC(=O)C(C)(C)NC(=O)[C@@H](N)Cc1c[nH]cn1)[C@@H](C)O)[C@@H](C)O)C(=O)N[C@@H](CO)C(=O)N[C@@H](CCCCN)C(=O)N[C@@H](Cc1ccc(O)cc1)C(=O)N[C@@H](CC(C)C)C(=O)N[C@@H](CC(=O)O)C(=O)N[C@@H](CCC(=O)O)C(=O)N[C@@H](CCC(N)=O)C(=O)N[C@@H](C)C(=O)N[C@@H](C)C(=O)N[C@@H](CCCCN)C(=O)N[C@@H](CCC(=O)O)C(=O)N[C@@H](Cc1ccccc1)C(=O)N[C@H](C(=O)N[C@@H](C)C(=O)N[C@@H](Cc1c[nH]c2ccccc12)C(=O)N[C@@H](CC(C)C)C(=O)N[C@@H](CCSC)C(=O)N[C@@H](CC(N)=O)C(=O)N[C@H](C(N)=O)[C@@H](C)O)[C@@H](C)CC)C(=O)O)C(=O)O
B4: Chi-2, AIB2, I7, Lys10 γE-C16 (SEQ ID NO: 649) (peptide)
peptide: H[Aib]QGTFISDK([γGlu-Palmitoyl])SKYLDEQAAKEFIAWLMNT-NH2
modifications: N-terminus assumed
SMILES: CCCCCCCCCCCCCCCC(=O)N[C@@H](CCC(=O)NCCCC[C@H](NC(=O)[C@H](CC(=O)O)NC(=O)[C@H](CO)NC(=O)[C@@H](NC(=O)[C@H](Cc1ccccc1)NC(=O)[C@@H](NC(=O)CNC(=O)[C@H](CCC(N)=O)NC(=O)C(C)(C)NC(=O)[C@@H](N)Cc1c[nH]cn1)[C@@H](C)O)[C@@H](C)CC)C(=O)N[C@@H](CO)C(=O)N[C@@H](CCCCN)C(=O)N[C@@H](Cc1ccc(O)cc1)C(=O)N[C@@H](CC(C)C)C(=O)N[C@@H](CC(=O)O)C(=O)N[C@@H](CCC(=O)O)C(=O)N[C@@H](CCC(N)=O)C(=O)N[C@@H](C)C(=O)N[C@@H](C)C(=O)N[C@@H](CCCCN)C(=O)N[C@@H](CCC(=O)O)C(=O)N[C@@H](Cc1ccccc1)C(=O)N[C@H](C(=O)N[C@@H](C)C(=O)N[C@@H](Cc1c[nH]c2ccccc12)C(=O)N[C@@H](CC(C)C)C(=O)N[C@@H](CCSC)C(=O)N[C@@H](CC(N)=O)C(=O)N[C@H](C(N)=O)[C@@H](C)O)[C@@H](C)CC)C(=O)O

“And” between values parts separate entries of the source, which are not always exact repeats. Equal entries are not always repeated. Starred links: 1 amine or outer side, 2 acyl side, 3 side chain; linkers in the order of their positions; H or OH if unused. Positions of bridges follow the written chain, without caps; N, C: chain ends. Non-standard residues stand in square brackets, D forms with d. Groups on a side chain read outwards from the residue. No end group written: not given here. *: point of attachment. γGlu = O=C(O)[C@H](CCC(=O)[*:2])N[*:1]; Palmitoyl = CCCCCCCCCCCCCCCC(=O)*; Myristoyl = CCCCCCCCCCCCCC(=O)*; DMIA = not defined here; Aib = CC(C)(N)C(=O)O; Ahx = NCCCCCC(=O)O

The target in the first assay is T1, GIP receptor (UniProt P48546 22-466).
T1 sequence (looked up): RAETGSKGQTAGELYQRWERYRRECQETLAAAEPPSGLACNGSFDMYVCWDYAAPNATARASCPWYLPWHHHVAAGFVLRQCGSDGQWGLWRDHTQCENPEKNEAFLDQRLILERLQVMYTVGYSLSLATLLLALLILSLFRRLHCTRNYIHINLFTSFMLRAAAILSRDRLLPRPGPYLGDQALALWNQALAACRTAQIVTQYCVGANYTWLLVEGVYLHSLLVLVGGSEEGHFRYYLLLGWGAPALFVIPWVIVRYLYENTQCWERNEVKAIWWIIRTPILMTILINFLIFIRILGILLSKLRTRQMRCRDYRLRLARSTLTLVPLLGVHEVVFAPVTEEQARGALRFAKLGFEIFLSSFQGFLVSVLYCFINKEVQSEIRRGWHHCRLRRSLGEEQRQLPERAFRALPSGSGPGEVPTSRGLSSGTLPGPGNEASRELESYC
Description: cell-based or functional assay.
In the case of H[Aib]QGTFTSDYSKYLDEQAAKEFIC(PEG 40 kDa)WLMNGGPSSGAPPPSK-NH2 [mt-350], the “% Relative activity” value is 0% and a half-maximal response (EC50) required 77.7 nM.

For a further assay, the target named is T2, glucagon receptor (UniProt P47871 26-477, limits assumed). As to the kind of experiment: cell-based or functional assay.
T2 sequence (P47871 26-477 limits assumed): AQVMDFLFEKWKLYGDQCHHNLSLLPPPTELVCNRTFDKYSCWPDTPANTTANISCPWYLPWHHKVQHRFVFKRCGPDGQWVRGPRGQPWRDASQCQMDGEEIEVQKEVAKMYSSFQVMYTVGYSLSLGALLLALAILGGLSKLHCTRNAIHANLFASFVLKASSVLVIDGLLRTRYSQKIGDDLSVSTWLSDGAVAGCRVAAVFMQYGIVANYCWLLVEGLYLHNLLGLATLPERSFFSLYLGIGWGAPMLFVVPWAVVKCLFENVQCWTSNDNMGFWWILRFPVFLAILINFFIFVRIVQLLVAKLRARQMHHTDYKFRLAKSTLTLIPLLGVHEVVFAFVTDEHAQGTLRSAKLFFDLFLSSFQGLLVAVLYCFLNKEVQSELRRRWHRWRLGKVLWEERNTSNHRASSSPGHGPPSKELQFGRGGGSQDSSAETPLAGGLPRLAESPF
As to H[Aib]QGTFTSDYSKYLD[Aib]QAAKEFIC(PEG 40 kDa)WLMNGGPSSGAPPPSK(Myristoyl)-NH2 [mt-351], the “% Relative activity” value worked out at 10.7% and the 50% effective concentration (EC50) is 0.196 nM.

The target of the next assay is T3, GLP-1 receptor (UniProt P43220 24-463, limits assumed). As to the kind of experiment: cell-based or functional assay.
As to H[Aib]QGTFTSDYSKYLDEQAAKEFIC(PEG 40 kDa)WLMNGGPSSGAPPPSK-NH2 [mt-350], the “% Relative activity” value is 58.9% and it took 0.0107 nM to reach a half-maximal effect (EC50).

In the next assay the target is T2, glucagon receptor. Description: cell-based or functional assay. The source holds these as a separate data set.
Take H[Aib]QGTFTSDK([Ahx-Palmitoyl])SKYLD[Aib]RRAQDFVQWLMNT-NH2 [Peptide 85 (SEQ ID NO: 567)]: a half-maximal response (EC50) required 0.01 nM.
H[Aib]QGTFTSDK(Myristoyl)SKYLD[Aib]RRAQDFVC(PEG 40 kDa)WLMNT-NH2 [Peptide 77* (SEQ ID NO: 570)] registered an EC50 of 21.9 nM.
On the same count and under the same terms, as for H[Aib]QGTFTSDK([γGlu-γGlu-Myristoyl])SKYLD[Aib]RRAQDFVC(PEG 40 kDa)WLMNT-NH2 [Peptide 78* (SEQ ID NO: 571)], the figure is 0.319 nM; as for H[Aib]QGTFTSDK([Pro-Pro-Palmitoyl])SKYLD[Aib]RRAQDFVQWLMNT-NH2 [Peptide 87 (SEQ ID NO: 569)], 0.017 nM.
With B1, a half-maximal response (EC50) required 0.653 nM.
Take H[Aib]QGTFTSDK([Ala-Ala-Myristoyl])SKYLD[Aib]RRAQDFVC(PEG 40 kDa)WLMNT-NH2 [Peptide 81* (SEQ ID NO: 573)]: the 50% effective concentration (EC50) is 0.597 nM.
In the case of H[Aib]QGTFTSDK([Ala-Ala-Palmitoyl])SKYLD[Aib]RRAQDFVQWLMNT-NH2 [Peptide 82 (SEQ ID NO: 564)], the EC50 was 0.024 nM.

For another assay, the target named is T3, GLP-1 receptor. Description: cell-based or functional assay. This is another data set of the same source.
As to H[Aib]QGTFTSDK([Ahx-Palmitoyl])SKYLD[Aib]RRAQDFVQWLMNT-NH2 [Peptide 85 (SEQ ID NO: 567)], a half-maximal effect (EC50) was put at 0.005 nM.
Still for that read-out and setting: the figure for H[Aib]QGTFTSDK(Myristoyl)SKYLD[Aib]RRAQDFVC(PEG 40 kDa)WLMNT-NH2 [Peptide 77* (SEQ ID NO: 570)] is 1.46 nM; for H[Aib]QGTFTSDK([γGlu-γGlu-Myristoyl])SKYLD[Aib]RRAQDFVC(PEG 40 kDa)WLMNT-NH2 [Peptide 78* (SEQ ID NO: 571)] it is 0.103 nM.
In the case of H[Aib]QGTFTSDK([Pro-Pro-Palmitoyl])SKYLD[Aib]RRAQDFVQWLMNT-NH2 [Peptide 87 (SEQ ID NO: 569)], the EC50 stood at 0.009 nM.
Consider B1, for which the EC50 is 0.475 nM.
In the case of H[Aib]QGTFTSDK([Ala-Ala-Myristoyl])SKYLD[Aib]RRAQDFVC(PEG 40 kDa)WLMNT-NH2 [Peptide 81* (SEQ ID NO: 573)], the EC50 amounted to 0.271 nM.
With H[Aib]QGTFTSDK([Ala-Ala-Palmitoyl])SKYLD[Aib]RRAQDFVQWLMNT-NH2 [Peptide 82 (SEQ ID NO: 564)], a half-maximal response (EC50) required 0.108 nM.

The target in another assay is T2, glucagon receptor. Description: cell-based or functional assay. This is another data set of the same source.
H[dS]QGTFTSDK([γGlu-γGlu-Palmitoyl])SKYLDEQAAKEFIAWLMNT [Chi-2, d-Ser2, Lys10 γE-γE-C16 (SEQ ID NO: 644)] returned an EC50 of 0.008 nM.
With B2, a half-maximal effect (EC50) was put at 0.025 nM. This EC50 lies about 3.1-fold higher than the previous one.
H[dS]QGTFTSDK([γGlu-Palmitoyl])SKYLDEQAAKEFIAWLMNT [Chi-2, d-Ser2, Lys10 γE-C16 (SEQ ID NO: 643)] yielded an EC50 of 0.011 nM.
The same measure, in the same setting: the figure for XSQGTFTSDYSKYLDERRAKDFVQWLMNK (DMIA at 1; E16/K20 lactam; Lys 29 with C16 acyl via γ-Glu-γ-Glu) [DMIA1, E16/K20 lactam, Lys29 γE-γE-C16 (SEQ ID NO: 654)] is 0.025 nM.

A further assay has as its target T3, GLP-1 receptor. As to the kind of experiment: cell-based or functional assay. The source holds these as a separate data set.
The molecule [DMIA]SQGTFTSDK([γGlu-γGlu-Palmitoyl])SKYLDERRAKDFVQWLMNT (lactam 16-20; reading uncertain) [DMIA1, E16/K20 lactam, Lys10 γE-γE-C16 (SEQ ID NO: 652)] had an EC50 of 0.004 nM.
Still for that read-out and setting: the figure for [DMIA]SQGTFTSDK([γGlu-Palmitoyl])SKYLDERRAKDFVQWLMNT (lactam 16-20; reading uncertain) [DMIA1, E16/K20 lactam, Lys10 γE-C16 (SEQ ID NO: 651)] is 0.006 nM.
With H[dS]QGTFTSDK([γGlu-γGlu-Palmitoyl])SKYLDEQAAKEFIAWLMNT [Chi-2, d-Ser2, Lys10 γE-γE-C16 (SEQ ID NO: 644)], a half-maximal response (EC50) required 0.003 nM.
Take B3: it took 0.0018 nM to reach a half-maximal effect (EC50).
Same read-out and setting: as for B4, the figure is 0.024 nM and 0.044 nM; as for B2, 0.0014 nM; as for H[dS]QGTFTSDK([γGlu-Palmitoyl])SKYLDEQAAKEFIAWLMNT [Chi-2, d-Ser2, Lys10 γE-C16 (SEQ ID NO: 643)], 0.0014 nM.
